From the supplement of paper PMC9732359
± gives the uncertainty stated by the source.

Assay: protein stability index of a GFP-peptide fusion (yeast GPS) (PSI 1-4); higher = more stable; sorted into four equal gates, so the index is relative within each strain
Conditions: san1∆
Summary of the method: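 Mid-log yeast cultures in leucine-free medium, carrying a pooled plasmid library, were sorted into four equal gates by their GFP/Cherry fluorescence ratio. Each plasmid expressed Cherry along with GFP fused upstream of a tiled 17-residue yeast protein peptide. Plasmids recovered from each gate were PCR-amplified and Illumina-sequenced, with reads assigned to strains by barcodes. The protein stability index was obtained by summing each gate's read frequency weighted by its gate number.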

Sequence | protein stability index
IEEIEYNVKNIIQGRKN [PCI8] | 2.39 ± 0.095
IEHNLRVISEYYSRITL [RPN5] | 2.41 ± 0.063
IEKGSTFGINLIYVNPF [FAS1] | 2.71 ± 0.052

Same assay, conditions: ubr1∆

Sequence | protein stability index
GSVIQTHIAESAKEIAK [MCD1] | 3.06 ± 0.058
GTGKTMLVKAVANSTKA [RPT3] | 1.31 ± 0.13
GTGNNNKLNFIVDDKQE [DIB1] | 1.61 ± 0.058
GTIKKIEQFAMRRNSKI [POP5] | 2.69 ± 0.039
GTSVYLVDKRIDMLPML [DIS3] | 2.12 ± 0.25
GVAHLLNRFNFQNTNTR [QCR2] | 2.5 ± 0.062
GVARIYASFNDTFVHVT [RPS14B] | 2.05 ± 0.095
GVARNFHFAIEQISNNS [SIN4] | 2.97 ± 0.062
GVATKDKFFTLSAENIE [SCL1] | 3.28 ± 0.25
GVDPTGSHLFSIHAHGS [PUP1] | 2.06 ± 0.12
GVLKPDITFFGEALPNK [SIR2] | 3.35 ± 0.085
GVLLPTRIKLLLTKNVS [RPS6A] | 2.03 ± 0.11
GVTIEFSTNVKDEIVLS [RPL9A] | 3.18 ± 0.065
GYKMIPGAKPLQVGDVV [FAS1] | 1.79 ± 0.14
HAQLLLSDRITGNFIIP [PRP8] | 2.71 ± 0.043
HEIYGSMPLEQLIPIIL [SRB4] | 1.72 ± 0.059
HEVVQDDSFSLLRIQML [PCI8] | 2.84 ± 0.036
HFFKWIEFIVYHQLLSD [SRB8] | 1.2 ± 0.041
HFNGIRRLDALVEKVYA [ITC1] | 2.95 ± 0.089
HGHLGFLPRKRAASIRA [RPL3] | 2.2 ± 0.077
HGLILELQKIWQIEEAG [SRB5] | 3.14 ± 0.043
HGLKQLRDSLADKIVDE [NUT2] | 2.3 ± 0.055
HGMSVDPRHIQLLGDVM [RPO31] | 2.98 ± 0.04
HGSISPQEESVSPNISS [SIR3] | 3.01 ± 0.034
HHELVPKHIRLSSDEKR [RPB5] | 3.16 ± 0.073

Sequence | protein stability index
HHFTCEITGTSCLTFFQ [ITC1] | 2.07 ± 0.047
HHRIFDSSAHFKGALTI [YMR129W/POM152] | 2.62 ± 0.053
HICGICGLMTVIAKLNH [RPB2] | 1.43 ± 0.066
HIFQVEYALEAVKRGTC [PRE6] | 2.77 ± 0.19
HILAVKKMMNTLVHTRV [SSN2] | 1.34 ± 0.059
HINKIPSNSTTTLHGPG [SRB8] | 3.11 ± 0.039
HIPRLIPKQLLDDEKIF [YJL039C/NUP192] | 1.31 ± 0.08
HIQEEEEQDVDMTGDEE [RPC19] | 3.27 ± 0.063
HKDSFYDRATLTQLLSM [RPO31] | 1.35 ± 0.04
HKKDRLQYLPLYAVSTF [SIR4] | 1.89 ± 0.037
HKLDLAKRNLDANPSSQ [SMC2] | 1.66 ± 0.035
HKQISAEDLTIAAKTHI [SIN4] | 2.76 ± 0.088
HLCSGILSSVNRTVLLK [SRB8] | 1.67 ± 0.047
HLERNRKDKDAKFRLIL [RPS13] | 3.52 ± 0.2
HLGCVPIGEAGDFGGWF [RIP1] | 3.06 ± 0.14
HLLSINYGEKEERKRWA [PCI8] | 3.4 ± 0.095
HLNFPNVKFLRIFISNV [SNF12] | 1.19 ± 0.087
HLSHPGTNKDMILKLVC [ECM29] | 1.91 ± 0.045
HLSYCSNLTIYPIYELL [GRR1] | 3.06 ± 0.074
HNAGPVAGAGAASGAAA [RPP1B] | 2.02 ± 0.059
HNMLNLLIHRKGLTYLH [PRP8] | 1.66 ± 0.049
HPFGHALVAGIERYPSK [RPL27B] | 2.46 ± 0.17
HPIRLYTRYLDRIYMLF [PRP8] | 2.4 ± 0.042
HPWEQAKEVKVLYHTSG [PRP8] | 2.9 ± 0.091
HQGTPLGSHSSSQKDGN [REC8] | 3.35 ± 0.089

Sequence | protein stability index
HRKHIAVLKKIQSKAVE [YCG1] | 2.57 ± 0.064
HRSGKIVVQLNGRLNKC [RPS22A] | 3.36 ± 0.13
HSQFMKDLKDDSIYTKP [YJL039C/NUP192] | 2.93 ± 0.038
HSRILPKKALKVKAGVR [RRP43] | 1.6 ± 0.032
HTEDTVNESRNSDDIID [SRB5] | 2.46 ± 0.055
HTLALEFVNGGKVVKNV [RRP46] | 2.14 ± 0.13
HTPTIASYLTPLLEAKK [SSN2] | 3.07 ± 0.048
HTSPHQPSDVKPTSHKQ [SIR4] | 2.52 ± 0.044
HVDSLIEDFVDGIANSK [SRB7] | 3.08 ± 0.057
HVINVGKTWEKLVLAAR [RPS0A] | 3.12 ± 0.098
HVKAGKGLIKVNGSPIT [RPS16A] | 3.1 ± 0.051
HVLKTVDYGGAEWSLVR [SNU114] | 1.31 ± 0.29
HVNKRKRVSGTSQHSDS [YOR098C/NUP1] | 1.64 ± 0.076
HVTQEDFELAVGKVMNK [RPT6] | 2.69 ± 0.15
HVVGRIAEVGNKRWKVD [RRP4] | 2.67 ± 0.082
HYLVNLTSPAFGPHVDV [GRR1] | 3.42 ± 0.28
HYPEIEDLVDRIENPEK [RPP0] | 3.05 ± 0.072
IAAIIGRLNTLVISLAA [IRR1] | 1.77 ± 0.03
IAATGLNQINGLNNDFL [GRR1] | 3.19 ± 0.12
IAAYIRRHRNPDLQFIV [SMC1] | 1.07 ± 0.04
IADLDTEAEETSIHSTI [RRP43] | 3.38 ± 0.15
IAGHDEFNGFSLYQVDP [PRE8] | 2.94 ± 0.095
IAGTFNVGKPDQSIASG [YOR098C/NUP1] | 2.98 ± 0.082
IAGVITRSKRLSQVYPT [CSN12] | 3.01 ± 0.071
IAHENEQKWLIYDKKDH [SRB8] | 2.8 ± 0.071

Sequence | protein stability index
IAHNISAKNRVVILARA [RPL32] | 1.52 ± 0.043
IAKSRYWYFLQKLHKVK [RPL20A] | 3.03 ± 0.084
IALEGYRLDIIESALKS [RPN2] | 1.25 ± 0.15
IAPRRKRLADGLSVTQK [DIS3] | 3.1 ± 0.061
IAQSKKKNNKIKESSKK [SRP21] | 3.16 ± 0.063
IASMSTVRASSLQDLIY [SMC2] | 2.25 ± 0.037
IAYGASQLLLERLMISS [RET1] | 1.39 ± 0.069
ICQIISSTITGDVVLAA [RPL5] | 3.06 ± 0.099
IDDRDYVGNKRLELAGQ [RET1] | 3.58 ± 0.13
IDEPIKSIMDGIHDGHI [FAS1] | 1.57 ± 0.038
IDFTLLNRLLRLIVDPN [PRP8] | 1.73 ± 0.051
IDGCVKIGDLGLARKFH [SSN3] | 3.37 ± 0.043
IDLDHKRFLILQGEVEN [SMC4] | 2.46 ± 0.057
IDLLLLGQERATDLAGP [PRP8] | 2.29 ± 0.05
IDMLPMLLGTDLCSLKP [DIS3] | 2.45 ± 0.057
IDQVNELVTISWVQPRI [RPN9] | 3.15 ± 0.067
IDSFFLYVLPSFNIPRL [YMR129W/POM152] | 1.26 ± 0.031
IDSTDHIRKASSKKSKR [LRP1] | 2.14 ± 0.038
IDYALTAVKQGVTSLGI [PRE8] | 1.62 ± 0.085
IEDVTPVPSDSTRKKGG [RPS14B] | 3.03 ± 0.04
IEEHPTVVDAIDNSDEI [IRR1] | 3.1 ± 0.06
IEEIEYNVKNIIQGRKN [PCI8] | 1.76 ± 0.042
IEHNLRVISEYYSRITL [RPN5] | 2.46 ± 0.073
IEKGSTFGINLIYVNPF [FAS1] | 2.78 ± 0.04
